In the DeepSol protein solubility set:

Test: soluble on expression in E. coli; label from the status in PepcDB or PDB records
In the case of “MSLSTLRIAMTAADIPLTLGQPDQGYEGNRFTGIPLYDALVEWDLSQGEKPSGLVPGLATEWHIDPQNTSRWIFTLRPGVKFHDGTEVNADAIVWNVDKVLNKAAPQYAPGQIGNTLSRMPTLTGAEKIDDHTVALTTSEPDALLPYNITNLFIVSPTAWQKQYDAVPASVGDSAARSKQAWTAFAAHAVGSGPFKLEKLVPRQQLILDKNPDYWNKDRIPRVDKVVLIPLPEANARTAALLSKQVDWIEAPAPDAIDQIKSQGFHLYANTQPHLWPWQFSFEKGSPWQDIRVRKAANLCLNRAELKSYLGGYMTEATGVYEADSPWHGKPTFQIKYDPDVARQLMTEAGYSASKPLHVTVATSASGSGQMQPLPMNEYIQQSLKSCFFNVDIKVVEWNTLFTNWRLGARDPSAKGIDAINVSAAVNDPYFGLIRFSTAKAFPPVATNWGYFSTPETEKLAAAVKHAFTPAEMNKAAGELHAALVDQVPFLFVAHDVGPRAISPAVTGVVQPQSWFIDLSLVSKKEGHHHHHH”, the “soluble on expression in E. coli” value is reported as “soluble”. With “MPNTIRLHRVLSAPPERVYRAFLDPLALAKWLPPEGFVCKVLEHDARVGGAYKMEFLAFASGQKHAFGGRYLELVPGERIRYTDRFDDAGLPGDMITTITLAPLSCGADLSIVQEGIPDAIPPENCYLGWQQSLKQLAALVEPDMPGLEHHHHHH” the “soluble on expression in E. coli” value was “soluble”. With “MDFKQHIAIVPDYPKEGIVFKDITPLMNDGKAYKAATDAIVEYAKERDIDLVVGPEARGFIIGCPVSYALEVGFAPVRKLGKLPREVITVDYGKEYGKDVLTIHKDAIKPGQRVLITDDLLATGGTIEATIKLVEELGGVVAGIAFLVELTYLDGRKMLDGYDVLVLEKY” the “soluble on expression in E. coli” value was “not soluble”. In the case of “AHHHHHHGSIIIMDNGGQYVHRIWRTLRYLGVEAKIIPNTTPLDEIKAMKPKGIIFSGGPSLENTGNCEKILEHYEEFNVPILGICLGHQLIAKFFGGEVGRGEKAEYSLVEIEIIDENDIFKGLPRKVRVWESHMDEVKKLPPKFKLLARSDTCPVEAMKHEELPIYGVQFHPEVAHTEHGADILRNFAKICGEL”, the “soluble on expression in E. coli” value is reported as “soluble”. In the case of “CEEPPTFEAMELIGKPKPYYEIGERVDYKCKKGYFYIPPLATHTICDRNHTWLPVSDDACYRETCPYIRDPLNGQAVPANGTYEFGYQMHFICNEGYYLIGEEILYCELKGSVAIWSGKPPICEKV”, the “soluble on expression in E. coli” value is reported as “soluble”. In the case of “MGSDKIHHHHHHASTKVAKSKAKGKVIVYYVYGKRGHTGKYLWSKKTLTGKIGTTYHTKALDLLNDSGYMALASHSKNTSGKFTRKTTKVYYRYYDVIERDYEFKHEADLYMELTGDHRIGLFDRNLQDGVEVVVERTNFSKPYYDVSYSNRVDTGHGSGLKEFHYRFGSTHRFKDNRDGNIYTMALTNSGGITFHAVATKHSTMNELVQVSAHGKLLTAKIRK”, the “soluble on expression in E. coli” value is reported as “not soluble”. For “TKEHRAIARKTASESFVLLKNEGVLPLSKKGTIAVVGPLANTRSNMPGTWSVAAVLDNAPSLVEGLREVVGDRAKVVTAKGSNLIGDADYEKRATMFGRELHRDNRTDRELLDEALKVAAGADVIVAALGESSEMSGESSSRTNLEMPDVQRALLQELLKTGKSVVLVLFTGRPLVLTWEEEHVPAILNVWFGGSEAAYAISDVLFGDVNPSGKLTATFPQNVGQIPLFYNHKNTGRPLQEGRWFEKFRSNYLDVSNEPLYPFGYGL”, the “soluble on expression in E. coli” value was “not soluble”. For “MAHHHHHHMFHLWPLRPQPNRKPLGSKVVCWPQRRQIPPAPRQVWISQTRRRGPPCSVKEGEPSWRQGTRPDWPELKRSQRQSTAGRATDLSVDKAIPFGALLPCGEASKQHQQQQPNATGNWHDDADAPKEGLETN”, the “soluble on expression in E. coli” value was “soluble”. In the case of “MGSDKIHHHHHHMGDAGGAGGNNMNIKQAKNEVKNTVKAYLSKDAHGEYVIPQIRQRPMLLIGPPGVGKTQIMEQIARECKIGLVAYTITHHTRQSAVGLPFIKEREYDGKSYSVTEYTMSEIIASVYEKMEATGLKEGILFIDEINCVSETLAPTMLQFLQCKTFGNQAVPKGWVIVAAGNPPEYNKSVRDFDMVTLDRVRYISIEADYQVWKEYARDVHIHDALLSYLELHPNNFYRVETDVDGMNFVTARGWEDLSSLLKVYEAGELAVTEEVIGEFIHHPDIAEDVYAYLEIYRKYNEDYGISDILSGNVKKSVYKRVFDADFDERITVVNLLLSGLTVVFSDVARERKMVQLWYEFLKEYRKSQRSTEEQHALYNSAVEQFSKNMEILKESSLILPKEYYIRQDVLKHIKGDFDTVMDDFTEESEKLSTMEDAAGEKLNHAFDFVEDVFSDDQEMLVFVTELTITPEISSFLAENECEKFDIYNEKLMVGSNRTRLLKELER”, the “soluble on expression in E. coli” value is reported as “not soluble”. In the case of “MAIIASNNSWDLYQLAVVILNYRTPQLVVDCLASLVSQIDPQTQQVIVVDNASGDDSVEEIEKAIANNNWQDWVRLLPSDVNGGFSAGNNLGIQAIRAENYLLLNSDTIVRPGAIQTLLVALEQYPEAGLFSPRLEWPDGTPQISCFRDHSPLSEMIDGARTSVITKLLQPFDVPIPVTEQSFEPQWTSFACVLIRRSVVEQIGLMDDGYFMYYDDIDYCRRARQAAWKIRYIPQASVVHLRGGSGSVKSDVASRKRPRPYLYASRSRYFAKFYGPLGLALANLGWLGGWGIAALREILGQKEPHTCDRQWQDIWFQWRQPLKPYRPELEHHHHHH”, the “soluble on expression in E. coli” value is reported as “soluble”. For “VMPLILLPAVDVVEGRAVRLVQGKAGSQTEYGSAVDAALGWQRDGAEWIHLVDLDAAFGRGSNHELLAEVVGKLDVQVELSGGIRDDESLAAALATGCARVNVGTAALENPQWCARVIGEHGDQVAVGLDVQIIDGEHRLRGRGWETDGGDLWDVLERLDSEGCSRFVVTDITKDGTLGGPNLDLLAGVADRTDAPVIASGGVSSLDDLRAIATLTHRGVEGAIVGKALYARRFTLPQALAAVRD”, the “soluble on expression in E. coli” value was “soluble”. With “MGSDKIHHHHHHMPPFILNSQNVFDYLSSLNLCTLEEGESSKIELKPAKNFNLLITFPEGRKLLVKQERHNLEGKTTGEFVLEWRIHDFVSRFPELNHIRSYLSEAIYFNWENSIIIFNYLDNYRDLMDFYVKENLNLFPTQLANAVGTTLALIHRTSFNCEEYRDFFQNPGESKSNPKTPHLNRGLDRLTPEIFGKVPADGLRFFALYQRYDSLGQAIAQLINSFTPCCLTHNDLKLNNILVSLDWEDIGDENIVRLIDWERGSWGDPANDLGTLIASYLQIWLYSMVTGKSIAIEESLRLAATPLYVLQPSLRELVIAYLTHFPEILEHHPDFLQRVMQFCGLALITAIQAQLQYEKTFGNVGICMLQVAKSLLCRPEASVQTIFGVQLSDLSPVSLSQV” the “soluble on expression in E. coli” value was “not soluble”. For “MSLNIKKAAELSGIKTDNIRYYERIGLIPKITRTESGIRNFTEANIRTLKFVKHMRDAGVQVEPLTRYMALVNEGNPETKEERIEILKNQVEQLRTEIIEKQSALDYLTFKIENYDEVMLPNEINLNQSSKETIKEGHHHHHH”, the “soluble on expression in E. coli” value was “soluble”. In the case of “INQYNQKKSQEYTDMQLLLQKESDFAQYYEMILSQSENQSILIHDIKKHLQSIKLLNEKNDSDKINAYIQQLLESSDLKETSKICDNEMLNAILCRYQRQCNEKHIVFHTDIRSDTVQNIYQHDLTSLFCNLLDNALESADNIPDSFIELTVEKKENSPFIIIILINSCRSTPVYDQDGLPVSHKANKGRHGFGIKSIKKVVKQYHGNLQMYYDNDSGTFHTIITLKQ”, the “soluble on expression in E. coli” value is reported as “not soluble”.
